From patent US20100260805A1 (CIRCASSIA, published 2010)
Where two headings read alike, the source gives them in different places.

Experiments:
HLA-DRB1*0101 = biological target: T1, HLA-DRB1*0101 (human); test: competitive MHC class II binding assay; competitor: control peptide Influenza haemagglutinin 307-319;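 further: each peptide was tested for its capacity to displace a known reference binder from human MHC class II allotypes, and its IC50 is expressed relative to that of the reference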
T1 construct: human MHC class II allotype

HLA-DRB1*0401 = biological target: T2, HLA-DRB1*0401 (human); test: as above
T2 construct: human MHC class II allotype

HLA-DRB1*1101 = biological target: T3, HLA-DRB1*1101 (human); test: as above
T3 construct: human MHC class II allotype

DQA1*0102/DQB1*0602 = biological target: T4, DQA1*0102/DQB1*0602 (human, UniProt P01920 33-230, limits assumed); test: competitive MHC class II binding assay; competitor: control peptide Human Insulin B 1-15
T4 construct: human MHC class II allotype
T4 MHC II alpha: not shown
T4 MHC II beta: not shown

HLA-DRB1*0701 = biological target: T5, HLA-DRB1*0701 (human); test: competitive MHC class II binding assay; competitor: control peptide Influenza haemagglutinin 307-319;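 further: each peptide was tested for its capacity to displace a known reference binder from human MHC class II allotypes, and its IC50 is expressed relative to that of the reference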
T5 construct: human MHC class II allotype

HLA-DRB1*1501 [1] = biological target: T6, HLA-DRB1*1501 (human); test: competitive MHC class II binding assay; competitor: control peptide Human myelin basic protein 85-99
T6 construct: human MHC class II allotype

HLA-DRB1*1501 [2] = biological target: T6, HLA-DRB1*1501; test: competitive MHC class II binding assay, high stringency screen; competitor: control peptide Myelin Basic Protein 85-99
HLA-DRB1*1101 (human) = biological target: T7, HLA-DRB1*1101 (human)
T7 chain 1: not shown
T7 chain 2: not shown

HLA-DRB1*0701 (human) = biological target: T8, HLA-DRB1*0701 (human)
T8 chain 1: not shown
T8 chain 2: not shown

HLA-DRB1*1501 (human) = biological target: T9, HLA-DRB1*1501 (human)
T9 chain 1: not shown
T9 chain 2: not shown

[3] = biological target: T10, DQA1*0102/DQB1*0602 (human), P01920
T10 chain 1: not shown
T10 chain 2: not shown

HLA-DRB1*1301 = biological target: T11, HLA-DRB1*1301 (human); test: competitive MHC class II binding assay; competitor: control peptide HLA-DQB1*0603 21-36
T11 construct: human MHC class II allotype

HLA-DRB1*0301 = biological target: T12, HLA-DRB1*0301 (human); test: competitive MHC class II binding assay; competitor: control peptide Myco. tuberculosis/leprae hsp 65 2-16
T12 construct: human MHC class II allotype

RGKPFQLEAVFEANQNT [HDM21B]
ratio of IC50 to that of the control peptide (HLA-DRB1*0101): 13.5 ratio
ratio of IC50 to that of the control peptide (HLA-DRB1*0401): 0.78 ratio
ratio of IC50 to that of the control peptide (HLA-DRB1*1101): 4.1 ratio

DGVLACAIATHAKIR [HDM26A]
ratio of IC50 to that of the control peptide (DQA1*0102/DQB1*0602): 0.61 ratio
ratio of IC50 to that of the control peptide (HLA-DRB1*0101): 42.3 ratio
ratio of IC50 to that of the control peptide (HLA-DRB1*0701): 16.3 ratio

KPFQLEAVFEANQNT [HDM21]
ratio of IC50 to that of the control peptide (HLA-DRB1*0101): 92 ratio
ratio of IC50 to that of the control peptide (HLA-DRB1*0401): 11.2 ratio
ratio of IC50 to that of the control peptide (HLA-DRB1*1101): 11.7 ratio

KPFQLEAVFEANQNTK [HDM21A]
ratio of IC50 to that of the control peptide (HLA-DRB1*0101): 200 ratio
ratio of IC50 to that of the control peptide (HLA-DRB1*0401): 52.2 ratio
ratio of IC50 to that of the control peptide (HLA-DRB1*1101): 10.3 ratio

RTVTPIRMQGGCG [HDM02]
ratio of IC50 to that of the control peptide (DQA1*0102/DQB1*0602): 0.03 ratio
ratio of IC50 to that of the control peptide (HLA-DRB1*1501 [1]): 80 ratio

B1: Fel d 1 peptide EQVAQYKALPVVLENA (peptide)
peptide: EQVAQYKALPVVLENA
notes: said to have been tested in an earlier study
ratio of IC50 to that of the control peptide (HLA-DRB1*1501 [2]): 0.97 ratio

CIIHRGKPFQLEA (modifications not checked) [HDM20]
ratio of IC50 to that of the control peptide (HLA-DRB1*1101 (human)): 28
ratio of IC50 to that of the control peptide (HLA-DRB1*0701 (human)): 1.1
ratio of IC50 to that of the control peptide (HLA-DRB1*1501 (human)): 242
ratio of IC50 to that of the control peptide [3]: 2.37

LDMRNIQVRGLKQ [HDM33]
ratio of IC50 to that of the control peptide (HLA-DRB1*1301): 263 ratio
ratio of IC50 to that of the control peptide (HLA-DRB1*0701): 46.5 ratio
ratio of IC50 to that of the control peptide (HLA-DRB1*1101): 41.5 ratio

REALAQTHSAIAVI [HDM09A]
ratio of IC50 to that of the control peptide (HLA-DRB1*1501 [1]): 200 ratio
ratio of IC50 to that of the control peptide (HLA-DRB1*0701): 0.49 ratio
ratio of IC50 to that of the control peptide (HLA-DRB1*1101): 21.1 ratio

TAIFQDTVRAEMTK [HDM48]
ratio of IC50 to that of the control peptide (HLA-DRB1*0701): 15.7 ratio
ratio of IC50 to that of the control peptide (HLA-DRB1*1101): 13.6 ratio
ratio of IC50 to that of the control peptide (HLA-DRB1*0301): 211 ratio

DGLEVDVPGIDPNACH (purity 66.7%) [HDM23A]
ratio of IC50 to that of the control peptide (DQA1*0102/DQB1*0602): 0.76 ratio
ratio of IC50 to that of the control peptide (HLA-DRB1*0301): 347 ratio

RNIQVRGLKQMKRVG [HDM34]
ratio of IC50 to that of the control peptide (HLA-DRB1*1301): 3.7 ratio
ratio of IC50 to that of the control peptide (HLA-DRB1*1501 [1]): 769 ratio
ratio of IC50 to that of the control peptide (HLA-DRB1*1101): 3.38 ratio

DTVRAEMTKVLAP [HDM49]
ratio of IC50 to that of the control peptide (DQA1*0102/DQB1*0602): 1.7 ratio
ratio of IC50 to that of the control peptide (HLA-DRB1*1501 [1]): 671 ratio

IDLRQMRTVTPIR [HDM01]
ratio of IC50 to that of the control peptide (HLA-DRB1*0701): 16 ratio
ratio of IC50 to that of the control peptide (HLA-DRB1*0301): 19.2 ratio
